Target: T1, 人CD40 (BJAB细胞) (human, UniProt P25942 21-277)
T1 construct: whole, on cells; On the surface of BJAB cells in FACS and in the functional assays; also called 细胞膜表面的CD40; 人CD40分子
Experiment: Western blot, hybridoma supernatant as primary antibody, HRP anti-mouse IgG secondary

T1 sequence (P25942 21-277): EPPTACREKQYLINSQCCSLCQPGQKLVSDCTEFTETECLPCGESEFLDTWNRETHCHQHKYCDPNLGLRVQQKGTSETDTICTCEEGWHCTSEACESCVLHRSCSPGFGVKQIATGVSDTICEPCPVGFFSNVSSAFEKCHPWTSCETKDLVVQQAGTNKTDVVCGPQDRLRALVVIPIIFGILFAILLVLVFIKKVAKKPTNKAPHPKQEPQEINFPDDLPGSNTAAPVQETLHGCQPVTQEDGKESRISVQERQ

B1: CD40单克隆抗体 No.3 (antibody, V domains shown)
VH: EVQLQQSGPELVKPGASVKIVCKASGYTFTDYNMDWVKQSHGKSLEWIGDINPKNGGIIYNQKFKGKATLTVDKSSSTAYMELRSLTSEDTAVYYCVRRFAYWGQGTTVTVSS
VL: DIELTQSPTTMAASPGEKITITCSASSSISSNYLHWYQQKPGFSPKLLIYRTSNLAYGVPARFSGSGSGTSYSLTIGTMEAEDVATYYCQQGSSIPYTFGGGTKLEIKR
notes: Mouse hybridoma antibody, tested as culture supernatant
- binding result: binds

Source: patent CN109384845A (SHANGHAI INST BIOLOGICAL SCIENCES CAS, dated 2019)
